B1: L-PpTA (Pseudomonas putida KT2440) (protein)
chain: MTDKSQQFASDNYSGICPEAWVAMEKANRGHDRAYGDDQWTERASEYFRNLFETDCEVFFAFNGTAANSLALASLCQSYHSVICSETAHVETDECGAPEFFSNGSKLLTAASVNGKLTPQSIREVALKRQDIHYPKPRVVTITQATEVGTVYRPDELKAISATCKELGLNLHMDGARFTNACAFLGCSPAELTWKAGVDVLCFGGTKNGMAVGEAILFFNRQLAEDFDYRCKQAGQLASKMRFLSAPWVGLLEDGAWLRHGNHANHCAQLLASLVSDLPGVELMFPVEANGVFLQMPEHAIEALRGKGWRFYTFIGSGGARFMCSWDTEEARVRELAADIRTIIGG
notes: E. coli BL21(DE3); HisTrap, Resource Q, Superdex 200

These molecules were tested on T1, NCC(=O)O (assay: purified protein). Conditions: glycine varied 2.5-50 mM, co-substrate 4-methylsulfonylbenzaldehyde, PLP, HEPES-NaOH pH 8.0, 30 °C.
T1 construct: E. coli BL21(DE3); HisTrap, Resource Q, Superdex 200
Assay type: biochemical, Pseudomonas putida
L-PpTA (Pseudomonas putida KT2440; A9L) was tested, and the Km was 14.6 mM, the kcat was 7.7 s⁻¹ and the kcat/Km was 530 M⁻¹ s⁻¹.
For “L-PpTA (Pseudomonas putida KT2440; Y312E)”, the Km was 25.3 mM, the kcat was 15.3 s⁻¹ and the kcat/Km was 600 M⁻¹ s⁻¹.
“L-PpTA (Pseudomonas putida KT2440; Y13C)” gave a Km of 24.7 mM, a kcat of 13.9 s⁻¹ and a kcat/Km of 560 M⁻¹ s⁻¹.
In the case of “L-PpTA (Pseudomonas putida KT2440; E147D)”, the Km is reported as 15.1 mM, the kcat is reported as 6.5 s⁻¹ and the kcat/Km is reported as 430 M⁻¹ s⁻¹.
For “L-PpTA (Pseudomonas putida KT2440; H133Y)”, the Km was 22.6 mM, the kcat was 12.5 s⁻¹ and the kcat/Km was 550 M⁻¹ s⁻¹.
“L-PpTA (Pseudomonas putida KT2440; H133W)” showed a Km of 12.9 mM, a kcat of 12.3 s⁻¹ and a kcat/Km of 950 M⁻¹ s⁻¹.
“L-PpTA (Pseudomonas putida KT2440; H133N)” was tested, and the Km was 12.8 mM, the kcat was 12.7 s⁻¹ and the kcat/Km was 990 M⁻¹ s⁻¹.
“L-PpTA (Pseudomonas putida KT2440; Y13K)” was tested, and the Km was 19.6 mM, the kcat was 10.4 s⁻¹ and the kcat/Km was 530 M⁻¹ s⁻¹.
“L-PpTA (Pseudomonas putida KT2440; Y312R)” showed a Km of 20.1 mM, a kcat of 12.2 s⁻¹ and a kcat/Km of 610 M⁻¹ s⁻¹.
Molecule L-PpTA (Pseudomonas putida KT2440; A9V) has a Km of 13.8 mM, a kcat of 7.2 s⁻¹ and a kcat/Km of 520 M⁻¹ s⁻¹.

The molecules below were run on NCC(=O)O (assay: purified protein). Conditions: glycine varied 2.5-50 mM, co-substrate 4-methylsulfonylbenzaldehyde, PLP, HEPES-NaOH pH 8.0, 30 °C.
Assay type: biochemical, Pseudomonas putida
For B1, the Km was 17.4 mM, the kcat was 7.1 s⁻¹ and the kcat/Km was 410 M⁻¹ s⁻¹.

Source: publication PMC9922994, “Comprehensive screening strategy coupled with structure-guided engineering of L-threonine aldolase from Pseudomonas putida for enhanced catalytic efficiency towards L-threo-4-methylsulfonylphenylserine” (Frontiers in Bioengineering and Biotechnology, 2023)
